What was measured:
[1] = biological target: N-acetylneuraminate lyase from Aliivibrio salmonicida LFI1238, construct with C-terminal His6-tag (Aliivibrio salmonicida LFI1238); test: crystal structure; crystals from 25% PEG 1.5 K and 20% glycerol; space group I222, one molecule in the asymmetric unit; tetramer generated by crystallographic symmetry; 1.65 A
[2] = biological target: N-acetylneuraminate lyase from Aliivibrio salmonicida LFI1238, construct with TEV-cleavable N-terminal His6-tag (Aliivibrio salmonicida LFI1238); test: SEC; Superdex 200 prep grade HiLoad 16/60 in 50 mM Tris-HCl pH 7.5, 500 mM NaCl, 5 mM beta-ME, 10% glycerol; room temperature
[3] = biological target: N-acetylneuraminate lyase from Aliivibrio salmonicida LFI1238, construct with TEV-cleavable N-terminal His6-tag (Aliivibrio salmonicida LFI1238); test: native gel or EMSA; native PAGE of purified AsNAL (2.75 ug) beside NativeMark unstained protein standard

Row | Substance | stoichiometry N [1] | stoichiometry N [2] | stoichiometry N [3]
1 | N-acetylneuraminate lyase from Aliivibrio salmonicida LFI1238, construct with C-terminal His6-tag (enzyme) | 4 |  | 
2 | N-acetylneuraminate lyase from Aliivibrio salmonicida LFI1238, construct with TEV-cleavable N-terminal His6-tag (enzyme) |  | 4 | 4
